Data as given in PMC10042821 (2023).

B1: eukaryotic translation factor 5A-1 (eIF5A-1), residues 15-151 [human] / deoxyhypusine synthase, wild type, His-tagged [human] (parent complex)
chain 1: not shown
chain 2: MEGSLEREAPAGALAAVLKHSSTLPPESTQVRGYDFNRGVNYRALLEAFGTTGFQATNFGRAVQQVNAMIEKKLEPLSQDEDQHADLTQSRRPLTSCTIFLGYTSNLISSGIRETIRYLVQHNMVDVLVTTAGGVEEDLIKCLAPTYLGEFSLRGKELRENGINRIGNLLVPNENYCKFEDWLMPILDQMVMEQNTEGVKWTPSKMIARLGKEINNPESVYYWAQKNHIPVFSPALTDGSLGDMIFFHSYKNPGLVLDIVEDLRLINTQAIFAKCTGMIILGGGVVKHHIANANLMRNGADYAVYINTAQEFDGSDSGARPDEAVSWGKIRVDAQPVKVYADASLVFPLLVAETFAQKMDAFMHEKNED

Variants of: B1
Test: MST; read off a plot

EC50 [nM] | Variant
~500 | chain 2 D243A
~45 | chain 2 E137A
~130 | chain 2 K329A
~50 | chain 2 H288A
~600 | chain 2 W327A

Variants of: B1
Test: MST; highest eIF5A concentration of the titration, est. 6e-5 M; read off a plot

response [fraction bound] | Variant
~0.33 | chain 2 F247A

Variants of: B1
Test: MST; read off a plot
Remark: another data set of the same source

EC50 [nM] | Variant
~45000 | chain 2 Y250A
~7000 | chain 2 Q83A
~700 | chain 2 Y176A
~2000 | chain 2 S240A

Second part, the variant before the results:

Variant | EC50 [nM]
chain 2 M244A | ~12000
chain 2 F272A | ~400
chain 2 I271A | ~50
chain 2 N173A | ~13000
chain 2 L295A | ~300
